Reference: article PMC3522052, “Association of HLA-DR1 with the allergic response to the major mugwort pollen allergen: molecular background” (BMC Immunology, 2012)

Experiments:
[1] = molecular target: HLA-DRB1*01:01 molecules (human (endogenous in homozygous EBV cells)); assay: ELISA
[2] = molecular target: HLA-DRB1*04:01 molecules (human (endogenous in homozygous EBV cells)); assay: ELISA
HLA-DRB1*01:01 = molecular target: T1, HLA-DRB1*01:01 (Homo sapiens, UniProt P01903+P01911, A100R/D57E/F55L/F60I/F76Y/I96L/L162R/M171V/P40L/Q125E/R42F/V115G/Y59C); assay: Peptide/MHC-binding assay, competitive ELISA against biotinylated HA306-318; settings: for binding to DR1 molecules, in words: competition with HA306-318, stated for DR1 or DR4; for ratio of IC50 of Art v 1-peptides/HA306-318, HLA-DR1: relative binding activity, competitive ELISA, pH 6.0, 24 h at 37°C, two independent experiments
T1 construct: endogenous in cells
Method: (§1) HLA-DRB1*01:01 and -DRB1*04:01 molecules were purified from homozygous EBV cells by affinity chromatography using mAb L243 as described before. Peptide binding to HLA-DR molecules was assessed by competitive ELISA. Dilutions were prepared in 10 mM phosphate, 150 mM NaCl, […], 10 mM citrate (pH = 6.0). […] After 24 hours of incubation at 37°C, peptide/MHC-class II complexes were added to 96 well plates coated with L243 antibody and incubated at RT for 2 hours. Bound biotinylated peptides were detected by Streptavidin-alkaline phosphatase conjugate (GE healthcare, Saclay, France) and 4-methyl-umbelliferyl phosphate (Sigma-Aldrich, St. Quentin Fallavier, France) as substrate. Emitted fluorescence was measured at 450 nm upon excitation at 365 nm by a Gemini fluorometer (Molecular probes, St Grégoire, France). […] Two independent experiments were performed to evaluate competitive binding.

HLA-DRB1*04:01 = molecular target: T2, HLA-DRB1*04:01 (Homo sapiens, UniProt P01903+P01911, A100K/A169T/F76Y/I96L/K127E/L162R/M171V/N62H/P40V/Q125Y/R42H/S133A/S149N/S66Y/V115G/V209L/W38E); assay: as above; settings: for binding to DR4 molecules, in words: competition with HA306-318, stated for DR1 or DR4; for ratio of IC50 of Art v 1-peptides/HA306-318, HLA-DR4: relative binding activity, competitive ELISA, pH 6.0, 24 h at 37°C, two independent experiments
T2 construct: endogenous in cells
Method: as §1

[3] = system: Art v 1_25-36-specific TCL and TCC with HLA-DR1-expressing APC; assay type: cell-based, human
Method: (§2) TCL or TCC (5 × 10^4 cells) were stimulated for 3 days with irradiated (60 Gy) APC and peptides at an optimum concentration of 3 μM, if not indicated otherwise. Proliferation was assessed by ^3H-thymidine uptake within the last 16 hours of incubation.

[4] = system: Art v 1_25-36-specific TCL and TCC with HLA-DR4-expressing APC; assay type: cell-based, human
Method: as §2

[5] = text statement for both HLA molecules

Molecule | other [1] | other [2] | ratio of IC50 of Art v 1-peptides/HA306-318, HLA-DR1 (HLA-DRB1*01:01) | ratio of IC50 of Art v 1-peptides/HA306-318, HLA-DR4 (HLA-DRB1*04:01) | further results
Art v 1_(22-33) (peptide) | 2020 | 756 | – | – | –
Art v 1_(25-36) (peptide) | 14 | 15 | – | – | –
Art v 1_(25-36) Ala-26 (peptide) | 16 | 3 | – | – | –
CDKKCIEWEKAQ [Art v 1_22-33] | – | – | 2016 | 756 | binding to DR1 molecules, in words (HLA-DRB1*01:01): weak; binding to DR4 molecules, in words (HLA-DRB1*04:01): weak
KAIEWEKAGHGA [Ala-26, mono-substituted peptide of Art v 1_25-36] | – | – | 16 | 3 | –
KCAEWEKAQHGA [Ala-27, mono-substituted peptide of Art v 1_25-36] | – | – | 2596 | >926 | –
KCIAWEKAQHGA [Ala-28, mono-substituted peptide of Art v 1_25-36] | – | – | 6 | 11 | –
KCIEWAKAQHGA [Ala-30, mono-substituted peptide of Art v 1_25-36] | – | – | 6 | 28 | –
KCIEWEAAQHGA [Ala-31, mono-substituted peptide of Art v 1_25-36] | – | – | 17 | 17 | –
KCIEWEKAQAGA [Ala-34, mono-substituted peptide of Art v 1_25-36] | – | – | 8 | 17 | –
KCIEWEKAQHAA [Ala-35, mono-substituted peptide of Art v 1_25-36] | – | – | 5 | 5 | –
KCIEWEKAQHGA [Art v 1_25-36] | – | – | 14 | 15 | binding less than HA306-318, HLA-DR1 (HLA-DRB1*01:01; [5]): 15 fold; binding less than HA306-318, HLA-DR4 (HLA-DRB1*04:01; [5]): 15 fold; median proliferation of TCC, DR1 [3]: 36,640 dpm; median proliferation of TCL, DR1 [3]: 31,630 dpm; TCC that did not respond to presentation by DR4 [4]: 18%; TCC that recognized the peptide presented by DR4 [4]: 82%; median proliferation of TCC, DR4 [4]: 24,125 dpm; median proliferation of TCL, DR4 [4]: 25,985 dpm
KCIEWEKGQHGA [Gly-32, mono-substituted peptide of Art v 1_25-36] | – | – | 63 | 149 | –
NKKCDKKCIEWE [Art v 1_19–30] | – | – | >55032 | >926 | binding to DR1 molecules, in words (HLA-DRB1*01:01): negligible; binding to DR4 molecules, in words (HLA-DRB1*04:01): negligible
KCAEWEKAQHGA [Art v 1_(25-36) Ala-27] | 2600 | – | – | – | –
KCIAWEKAQHGA [Art v 1_(25-36) Ala-28] | 6 | 11 | – | – | –
KCIEWAKAQHGA [Art v 1_(25-36) Ala-30] | 6 | 28 | – | – | –
KCIEWEAAQHGA [Art v 1_(25-36) Ala-31] | 17 | 17 | – | – | –
KCIEWEKGQHGA [Art v 1_(25-36) Gly-32] | 63 | 149 | – | – | –
KCIEWEKAQAGA [Art v 1_(25-36) Ala-34] | 8 | 17 | – | – | –
KCIEWEKAQHAA [Art v 1_(25-36) Ala-35] | 5 | 5 | – | – | –
